Measured values published in PMC10518340 (Signal Transduction and Targeted Therapy, 2023).

Target: T1, recombinant extracellular domain of IFNAR1 (ECD-IFNAR1) (UniProt P17181 28-436, RED-tris-NTA 2nd Generation dye on the His-tag (MST only))
T1 construct: signal peptide in the construct; extracellular domain of IFNAR1, residues 1-436 as printed; the secreted product lacks the signal peptide; source: bought: Sino Biological (13222-H08H)
T1 sequence: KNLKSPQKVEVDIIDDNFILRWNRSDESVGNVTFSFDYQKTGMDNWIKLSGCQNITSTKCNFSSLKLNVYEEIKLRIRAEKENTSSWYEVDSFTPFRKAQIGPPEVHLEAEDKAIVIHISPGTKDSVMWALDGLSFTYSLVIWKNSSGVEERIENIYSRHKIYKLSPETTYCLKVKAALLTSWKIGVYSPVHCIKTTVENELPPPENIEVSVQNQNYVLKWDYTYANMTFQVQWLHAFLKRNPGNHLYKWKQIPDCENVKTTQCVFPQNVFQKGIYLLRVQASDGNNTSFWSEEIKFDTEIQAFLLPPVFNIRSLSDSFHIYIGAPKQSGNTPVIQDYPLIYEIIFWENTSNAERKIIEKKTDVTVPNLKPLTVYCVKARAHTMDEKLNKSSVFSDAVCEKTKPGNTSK
Experiment: MST; His-tagged ECD-IFNAR1 labelled with RED-tris-NTA 2nd Generation dye for 30 min, mixed with serially diluted LRPAP1 peptides; Monolith NT.115 capillaries; S/N above 5.0 taken as valid binding
Conditions: both partners purified

B1: RAPD1P1, peptide from the N-terminal of LRPAP1 (residues 35-53) (peptide)
peptide: YSREKNQPKPSPKRESGEE
notes: LRPAP1 residues 35-53; also called PAPD1P1; source: synthetic peptide (GenScript Biotech, purity 95%)
  Kd: 0.0113 µM
